Reference: publication PMC3760192

Assays:
Test in all cases: AFM force spectroscopy
[1] = molecular target: MBP-CBD protein
[2] = molecular target: MBP-I^N of the Oscillatoria limnetica (Oli) split intein (Oscillatoria limnetica)
[3] = molecular target: MBP-I^N of the Nostoc species PCC7120 (Nsp) split intein (Nostoc species PCC7120)
[4] = molecular target: MBP-I^N of the Thermosynechococcus vulcanus (Tvu) split intein (Thermosynechococcus vulcanus)

Row | Fad (adhesion force) [1] | Fad (adhesion force, mode of the lognormal distribution) [2] | Fad (adhesion force, mode of the lognormal distribution) [3] | Fad (adhesion force, mode of the lognormal distribution) [4] | Substance
1 | < 30 pN |  |  |  | MBP-I^C-CBD of the Nostoc species PCC7120 (Nsp) split intein
2 | < 30 pN |  |  |  | MBP-I^C-CBD of the Oscillatoria limnetica (Oli) split intein
3 | < 30 pN |  |  |  | MBP-I^C-CBD of the Thermosynechococcus vulcanus (Tvu) split intein
4 |  | 60 pN | 52 pN | 52 pN | cleaved CBD-I^C of the Nostoc species PCC7120 (Nsp) split intein (domain or fragment)
5 |  | 52 pN | 52 pN | 52 pN | cleaved CBD-I^C of the Oscillatoria limnetica (Oli) split intein (domain or fragment)
6 |  | 52 pN | 49 pN | 53 pN | cleaved CBD-I^C of the Thermosynechococcus vulcanus (Tvu) split intein (domain or fragment)
